In patent publication CN113603773A (FIRST HOSPITAL CHINA MEDICAL UNIV, dated 2021):

Tests used:
[1] = molecular target: T1, 人源淀粉样蛋白42 Aβ42 纤维体 (human, UniProt P05067 672-713); test: dot blot on nitrocellulose, ECL
T1 construct: domain: Aβ42; Fibril preparation; also called Aβ42 fib

[2] = molecular target: T2, 人源淀粉样蛋白42 Aβ42 寡聚体 (human, UniProt P05067 672-713); test: dot blot on nitrocellulose, ECL
T2 construct: domain: Aβ42; Oligomer preparation; also called Aβ42 oli

[3] = molecular target: T3, 人源淀粉样蛋白42 Aβ42 单体 (human, UniProt P05067 672-713); test: ELISA, Aβ coated at 5 μg/mL, 7B8 diluted 1:20,000, OD450
T3 construct: domain: Aβ42; Monomer preparation; also called Aβ42 mon
T3 sequence (P05067 672-713 limits assumed): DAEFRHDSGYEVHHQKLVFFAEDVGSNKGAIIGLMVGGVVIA

Measured: binding result

T1 sequence (P05067 672-713 limits assumed): as above
T2 sequence (P05067 672-713 limits assumed): as above

B1: 靶向淀粉样蛋白的单克隆抗体7B8 (antibody, mouse IgG1, V domains shown)
VH: QVQLQQPGAELVKPGASVKLSCKTSDYSFTSYWMHWVKQRPGQGLEWIGEINPSNGRKKYNEKFKSKATLTVDTSSSTAYMQLSSLTSEDSAVYYCAREGRGYWGQGTTLTVSS
VL: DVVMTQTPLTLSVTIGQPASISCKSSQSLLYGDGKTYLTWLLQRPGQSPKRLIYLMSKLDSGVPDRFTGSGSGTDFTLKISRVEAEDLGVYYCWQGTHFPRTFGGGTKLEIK
notes: also called 抗Aβ3-10的单克隆抗体
binds: all assays above
